Test results taken from patent US12686712B2, “Antibody, related use, pharmaceutical composition including method for diagnosing fungal infections, fungal infection diagnosis kit and method for treating fungal infections” (priority 2020, dated 2026).

Test system: C. neoformans
Assay: Melanization trial (L-DOPA)
Type: cell-based, Cryptococcus neoformans
Conditions: concentrations lower than 6.2 μg/ml; p>0.05
Description: C. neoformans cultivation was performed as paragraph and cellular suspension (1×10^6 cells/ml) was cultivated for 72 hours in minimum media supplemented with 1 mM of L-DOPA in 96-well plate of U-shape bottom. Antibodies HC6/DD11 and AF1/CC5 were added to minimum media within 25 to 0.05 μg/ml concentration range. The plate was centrifuged and pigment development quantification was defined densitometrically upon image scanning by iBright FL1000 Invitrogen equipment.
AcM HC6/DD11 e AF1/CC5 established concentrations were 0.2 to 25 μg/ml. L-DOPA was used with substrate to melanization.
Pigmentation in C. neoformans was assessed through brown to black sedimentation observation in 96-well plate bottom. To document pigmentation or inhibition, plates were photographed over white surfaces (clear bottom), to enable differentiation between pigmented and non-pigmented populations. It shall be noted that every AcM dose presents fungal growth, however with negative pigmentation or partial inhibition.

B1: HC6/DD11: murine IgM monoclonal antibody against chitooligomers (chitotriose); VH SEQ ID NO: 15, VL SEQ ID NO: 16 (antibody, listed as Mus musculus, V domains shown)
VH: STGQVKLEESGGGLVQPGGSRKLSCAASGFTFSDYGMAWVRQAPGKGPEWVAFISNLAYSIYYADTVTGRFTISRENAKNTLYLEMSSLRSEDTAMYYCARDYYGSSYWYFDVWGAGTTVTAPC
VL: ATNSCISRGEVTITCSASSSVSYMHWFQQKPGTSPKLWIYSTSNLASGVPARFSGSGSGTSYSLTISRMEAEDAATYYCQQRSSYPLTFGAGTKLELKRADAAPTVSLET
  melanization in lower concentrations: not significant inhibition
